We go through six substances from article PMC5908791.

pKd: −log10 of the molar value.

One assay addresses human JAK1 kinase domain (human) (UniProt P23458).
Chain of UniProt P23458 (P23458 869-1153): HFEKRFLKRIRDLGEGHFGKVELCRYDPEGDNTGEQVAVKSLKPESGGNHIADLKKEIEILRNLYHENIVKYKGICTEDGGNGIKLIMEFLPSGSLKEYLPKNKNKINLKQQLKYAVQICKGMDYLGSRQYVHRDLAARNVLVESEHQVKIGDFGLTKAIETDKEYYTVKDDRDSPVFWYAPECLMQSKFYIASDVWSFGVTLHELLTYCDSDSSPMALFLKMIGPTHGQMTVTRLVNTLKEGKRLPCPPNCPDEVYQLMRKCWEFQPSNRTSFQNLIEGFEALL
Test: not given
As for “human SOCS1 (residues 53-211) in complex with Elongins B and C (from UniProt O15524 53-211; Q15370 1-118; Q15369 17-112)”, the IC50 of inhibition of the JAK1 kinase domain phosphorylating a STAT5b-derived peptide (in vitro kinase assay) worked out at 30 nM.

Another assay has as its target human SOCS1 (residues 53-211) in complex with Elongins B and C (human) (UniProt O15524). Briefly: ITC. On the technique in general: In ITC the heat of successive injections is recorded.
By pKd is commonly meant the Kd on a negative log10 scale, so that one unit is a factor of ten. Low values mean a high Kd, high ones a low Kd. The substance IL-2Rβ (pY392) showed a negative-log Kd (pKd) of 5.99.

For IL-2Rβ (pY355), the pKd was 6.21.

As to IL-2Rβ (pY510), the negative logarithm of the Kd (pKd) was 6.68.

As for IFNαR2 (pY269), the pKd was 5.58.

For the substance IL-2Rβ (pY338), the negative-log Kd (pKd) was 6.02.
